According to the nanobody polyreactivity screen of Harvey et al. (2022):

Assay: yeast display, Sf9 membrane polyspecificity reagent, FACS + sequencing; frameworks hold sequencing errors
Summary of the method: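 Galactose induction of a Saccharomyces cerevisiae BJ5465 synthetic nanobody display library ran 36–48 hours. The cells were then stained for 1 hour at 4 °C with 10% biotinylated, detergent-solubilized Sf9 membrane reagent, pulled down on streptavidin microbeads and FACS-sorted into low and high (top ~1%) gates on expression and reagent-binding fluorescence. Labels for polyreactivity follow the gate of origin.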

| Sequence | polyreactivity (PSR sort gate) |
| --- | --- |
| QVQLVESGGGLVQAGGSLRLSCAASGSTFESNAMGWYRQAPGKERELVAAISYIDTSTYYADSVKGRFTISRDNAKNTVYLQMNSLKPEDTAVYYCATDVDWAYGYQYEYWGQGTQVTVSS | low polyreactivity |
| QVQLVESGGGLVQAGGSLRLSCAASGRIFGVYAMGWYRPAPGKERELVAAITRGASTYYADSVKGRFTISRDNAKNTVYLQMNSLKPEDTAVYYCAAVVSGRYWGYYSWGQGTQVTVSS | high polyreactivity |
| QVQLVESGGGLGQAGGSLRLSCAASGRTLGIYAMGWYRPAPGTERELVAAITNGDSTHYADSVKGRFTISRDNAKNTVYLQMNSLKPEDTAVYYCAAEDHYEGYGGYYWGQGTQVTVSS | low polyreactivity |
| QVQLVESGGGLVQAGGSLRLSCAASGSTIEDYAMGWYRQAPGKERELVAAISWRSDITYYADSVKGRFTISRDNAKNTVYLQMNSLKPEDTAVYYCAADNSYHWLDREFDYEFDYWGQGTQVTVSS | high polyreactivity |
| QVQLVESGGGLVQAGGSLRLSCAASGFTFTAYAMGLYRQAPGKERQLVAAINWSGSRTYYADSVKGRFTISRDNAKNTVYLQMNSLKPEDSAVYYCNTPTSKSSYRHYDYWGQGTQVTVSS | high polyreactivity |
| QVQLVESGGGLVQAGGSLRLSCAASGRIFYNYAMGWYRQAPGKERELVASISNSGGSTYYADSVKGRFTISRDNAKNTVYLQMNSLKPEDTAVYYCARRYYYYTTYRYDYWGQGTQVSVSS | high polyreactivity |
| QVQLVESGGGLVQAGGSLRLSCAASGSIFGLNAMGWYRQAPGKERELVAAISCGSTNYADSVKGRFTISRDNAKYTVYLQMNSLKPEDTAVYYCAARARRRYYYWGQGTQVTVSS | high polyreactivity |
| QVQLVESGGGLDQAGGSLRLSCAASGSIFYRNAMGWYRQAPGKEMELVAAISGRGGSTNYADSVKGRFTISRDNAKNTVYLPMNSLKPEDTAVYYCNRFGVSNILVRGGYWGLGTQVTVSS | high polyreactivity |
| QVQLVESGGGLVQAGGSLRLSCAASGSILQVYAMGWYRQAPGKERELVAGISWGGGRTYADSVKGRFTISRDNAKNTVYLQMISLKPEDTAVYYCNKVWRFGYYGSYYWGQGTLVTVSS | high polyreactivity |
| QVQLVESGGGLVQAGGSLRLSCAASGSIFDPNAMGWYRQAPGKEREFVAAISYGGGSTTYADSVKGRFTISRDNAKNTVYLQMNSLKPEDTAVYYCAAGFYTYPTWFHPGYLFSAGDYWGQGTQVTVSS | low polyreactivity |
| QVQLVESGGGLVQAGGSLRLSCAASGFIFLLYDMGWYRQAPGKERELVAAISRSGGSTYYADSVKGRFTISRDNAKNTVYLQMNSLKPEDTAVYYCNAAYRPWRGGYYPVGYYYWGQGTQVTVSS | high polyreactivity |
| QVQLVESGGGLVQAGGTLRLSCAASGRTYYGYAMGWYRQATGKERQLVAAIRSTTGSTYYADSVKGRFTISRDNAKITVYLQMNSLKPEDTAVYYCASAYPFYADMDYWGQGTQVTVSS | low polyreactivity |
| QVQLVESGGGLVQAGGSLRLSCAASGFTFPQYAMGWYIQAPGKERELVASITRRGGSTFYADSVKGRFTISRDNAKNTVYLQMNSLKPEDTAVYYSAAGDYSRSVSRYWYTDYDYWGQGTQVTVSS | high polyreactivity |
| QVQLVESGGGLVQAGGSLRLNCAASGRIFDVNAMGWYRQAPGKERELVAAITYSDGSTYYADSLKGRFTISRDTAKNTVYLQMNSLKPEDTAVYYCAATHEPVTPQPYGYWGQGTQVTVSS | low polyreactivity |
| QVQLVESGGGLVQAGGSLRLSCAASGSTLVIYAMGWYRQAPVKEREFVAAIRCSPGRTYYADSVKGRFTISRDNAKNSVYLQMNSLKPEDTAVYYCAVEYQSWKGWWFDYWGQGTQLTVSS | high polyreactivity |
| QVQLVESGGGLVQAGGSLRLSCAASGSIFRTNAMGWYRQAPGKERELVAAITGRGGSTYYADSVKGRFTISRNNAKNTVYLQMNSLKPEDTAVYYCAADTWYGYRYKYDYWGQGTQVTVSS | high polyreactivity |
| QVQLVESGGGLVQAGGSLRLSCAASGITFHGYAMGWYRQAPGKERELVAAISDSGSSTYYADSVKGRFTISRDNAKNTVYLQMNSLKPEDTAVYYCAAVSGFYDQYDYWGQGTQVTVSS | low polyreactivity |
| QVQLEESRGGLVQAGGSLRLSCAASGSILTGYAMGLSRQAPGKERELVAAINFSGDNTYYADSVKGRFTISRDNAKNSVYLQMNSLKPEDTAVYYCNARNAVEDDYWGQGTQVTVSS | low polyreactivity |
| QVQLVESGGGLVQAGGSLRLSCAASGFTFRNNAMGWYRQAPGKDRELVAAITARGGSTYYADSVKGRFTISRDNAKNTVYLQMNSLKPEDTAVYYCATDDYPWGRHPWYAGYDSWGQGTQVTVSS | low polyreactivity |
| QVQLVESGGGLVQAGGSLRLSCAAYGSIFRKYVMGWYRQAHGKERELVAVISSGTGTYYADSVKGRFTISRDNAKNTVYLQMNSLNPEDTAVYYCAARVGRYGYSQYYYWGHGTQVTVSS | high polyreactivity |
| QVQLVESGGGLLQAGGSLRLSCAASGGTFERNAMGWYRQAPGKERELVAAISISGGRTYYADSVKGRFTISRDNAKNTVYLQMKSLKPEDTAVYFCAAGVGSRIKQVGNDYWGQGTQVTVSS | high polyreactivity |
